The values below come from PMC10101095, “The Oxidative Stress-Induced Hypothetical Protein PG_0686 in Porphyromonas gingivalis W83 Is a Novel Diguanylate Cyclase” (Microbiology Spectrum, 2023).

Series [1] concerns the molecule itself. Kind of series: native gel or EMSA; native-PAGE of purified rPG_0686 / SEC fractions, with immunoblot. For orientation: In EMSA bound probe runs differently from free probe, usually more slowly.
Series [2] concerns the molecule itself. Kind of series: SEC; Superdex 200 10/300 GL, 100 uL of 0.2 mg/mL rPG_0686, mobile phase 0.15 M ammonium bicarbonate, 0.1 mL/min; sizes calculated against Bio-Rad 1511901 protein standard.

The term stoichiometry N denotes the number of molecules, sites or subunits per partner or assembly.

Values joined by “and” are separate entries in the source; they are usually repeats but may differ in a detail not shown here. Identical values can stand only once.

B1: recombinant PG_0686 (rPG_0686) protein of Porphyromonas gingivalis W83 (enzyme, UniProt Q7MWD6 1-517, looked up)
chain: MQVIKTNETFDSLDKSKLERMLDIKEAHREGHLTLEEAKERMKKEVGSISPEEFAAAEQLFKERDQDECQNEDVRTMLQLFEGLINPIRPDLPFGHPIDAYLRENDKAKELLDQADALLERTFIPNPWIELMETLMGYKLHFARKQNQLYSTLEQKGFDRPSTTMWTYDDHIRDEMNKAMSLLREKDYDSFPAAYKEMAIVLRDLMEKEELILYPTSLKLISDKEFEEMKHGDREIGFFLIDMPELDAPAKQSKEAHGQSFMAELGALLAKHGMGTGGQDDKAILDVAEGKLTLEQINLLFRHLPVDISFVDENELVCFYTDTKHRVFPRSKGVIGREVRNCHPPKSVHIVEEIIDKFRRGEQDRAEFWINKPGVFIYIVYVAIRDADGRFRGVMEMMQDCTRIRSLEGSRTLLTWDEEQSPAQGSKESESDTAGEDGIRPDTKLKSLLQRYPQLMDDLPTISSKFTLLRSPMAKVILPVATIKMMSERADIPSDMLIGKLESLIASYNKPDRSEEK
notes: PG_0686, hypothetical protein / diguanylate cyclase of Porphyromonas gingivalis W83; 517 amino acids, 60 kDa; the ORF of the PG_0686 gene cloned in-frame into pEXP5-NT/TOPO; domains hemerythrin (96-215), PAS10 (297-402), DUF-1858 (421-497); Number of copies in the native oligomer differs by method (SEC: decamer and pentamer; native-PAGE: octamer and tetramer); The vector pEXP5-NT/TOPO probably …
As to B1, the “stoichiometry N” value is 8 and 4 in series [1]; 10 and 5 in series [2].
